This is an account of results in patent US20040033954A1, “Therapeutic method for combined use of modified CNTF and thiadolidinedione” (priority 2002, published 2004).

For data set [1] the following is noted: cited from earlier work.
A further data set concerns C57BL/KsJ db/db mice. As to the kind of experiment: Body weight and food intake of db/db mice under daily treatment. It is filed as in vivo. The protocol:
FIG. 1 is a graph of the effect of co-administration of Axokine™ (SEQ ID NO:1) (0.1 or 0.3 mg/kg s.c.), Avandia™ (3 or 10 mg/kg/day oral gavage) , or vehicle for 12 days on body weight in C57BL/KsJ db/db mice (% change from the first day of treatment). At day 5 (arrow), two combined treatment groups were initiated receiving Avandia™ (3 mg/kg/day, oral gavage)+Axokine™ (0.1 or 0.3 mg/kg s.c.). All data represents the mean (n≧6)±SEM.
C57BL/KsJ db/db mice were treated by daily administration of Axokine™ (SEQ ID NO:1) (0.1 or 0.3 mg/kg s.c.), Avandia™ (3 or 10 mg/kg/day oral gavage), and vehicle (vehicle) for […], and the effect on body weight determined (FIG. 1, shown as the % change from the first day of treatment). […] A combined treatment group consisted of Avandia™ (3 mg/kg/day, oral gavage) +Axokine™ (0.1 or 0.3 mg/kg s.c.) administered for the […] (arrow, FIG. 1). All data represents the mean (n>6)±SEM.

In a further data set the test system is C57Ks/J db/db male mice. Description: Fatty liver of db/db mice, Oil-Red O staining for neutral lipid. It is filed as in vivo. The settings on record: 10-week-old db/db male mice; Avandia 3 or 10 mg/kg/day oral gavage for 13 days, ± Axokine 0.1 or 0.3 mg/kg/day in the last 8 days. The protocol:
The effects of Avandia™ administration ±Axokine™ (SEQ ID NO:1) on fatty liver of db/db mice was examined. 10-week-old C57Ks/J db/db male mice were treated for 13 days with either vehicle or Avandia™ alone (3 or 10 mg/kg/day) by oral gavage or ±Axokine™ (0.1 or 0.3 mg/kg/day) in the last 8 days. 24 hours after the last administration (day 14) all animals were anesthetized , the liver removed and rapidly frozen until it could be processed. The tissues were sectioned, mounted on glass, and stained with Oil-Red O for the detection of neutral lipid.

For data set [2] the following is noted: previously found by the applicant; cited from earlier work.
[3] abbreviates: daily injection 0.1 or 0.3 mg/kg s.c.

With `CN(CCOc1ccc(CC2SC(=O)NC2=O)cc1)c1ccccn1` (stereo not shown) [Avandia™, rosiglitazone], the body weight result in data set [1] (Chaput et al. (2000)) was “increased body weight”.

With `Cc1c(C)c2c(c(C)c1O)CCC(C)(COc1ccc(CC3SC(=O)NC3=O)cc1)O2` (stereo not shown) [troglitazone], the hepatic reaction entry in data set [1] (patients, Lebovitz et al. (2002)) was “idiosyncratic hepatic reaction leading to hepatic failure and death in some patients”.

B1: Axokine™: modified CNTF molecule (SEQ ID NO:1) with improved physical and chemical properties, which activates the CNTF receptor (protein)
chain: MAFTEHSPLTPHRRDLASRSIWLARKIRSDLTALTESYVKHQGLNKNINLDSADGMPVASTDRWSELTEAERLQENLQAYRTFHVLLARLLEDQQVHFTPTEGDFHQAIHTLLLQVAAFAYQIEELMILLEYKIPRNEADGMPINVGDGGLFEKKLWGLKVLQELSQWTVRSIHDLRFISSHQTG
For B1, in the data set on C57BL/KsJ db/db mice (setting [3]), the body weight result is “caused weight loss” and the food intake entry is recorded as “decreased food intake”. Further, the “body weight with increasing doses, versus vehicle control groups” value in the data set with C57BL/KsJ db/db mice (increasing doses, ANOVA, P<0.0001 in all cases) is recorded as “further reduction in body weight”. For the same molecule, the “deposition of neutral lipid in liver (Oil-Red O staining)” value in the data set with C57Ks/J db/db male mice is “reduced staining with Oil Red O”. For the same molecule, the “effect on food intake and body weight, blood glucose and tolerance, and serum insulin levels” value in data set [2] is recorded as “profound effect”.
